Reference: patent publication US20250320281A1

Tests used:
Assay in all cases: cell-based or functional assay
[1] = target: HIV-1 Env of isolate MGRM-A-005 (HIV-1)
[2] = target: HIV-1 Env of isolate APV-17 (HIV-1)
[3] = target: HIV-1 Env of isolate 93WR029 (HIV-1)
[4] = target: HIV-1 envelope glycoprotein (Env) of isolate MGRM-C-015 (HIV-1)
[5] = target: HIV-1 Env of isolate MGRM-AG-011 (subtype AG) (HIV-1)
[6] = target: HIV-1 Env of isolate MGRM-Chronic-B-018 (subtype B) (HIV-1)
[7] = target: HIV-1 envelope glycoprotein (Env) of isolate MGRM-C-028 (HIV-1)
[8] = target: HIV-1 Env of isolate MG RM-D-018 (HIV-1)
[9] = target: HIV-1 Env of isolate 98CN006 (HIV-1)
[10] = target: HIV-1 Env of isolate MG RM-D-003 (HIV-1)
[11] = target: HIV-1 Env of isolate MG RM-D-008 (HIV-1)
[12] = target: HIV-1 Env of isolate 93TH305 (HIV-1)
[13] = target: HIV-1 Env of isolate MGRM-AE-007 (subtype AE) (HIV-1)
[14] = target: HIV-1 Env of isolate MGRM-A-011 (subtype A) (HIV-1)
[15] = target: HIV-1 Env of isolate MG RM-D-019 (HIV-1)
[16] = target: HIV-1 Env of isolate MG RM-D-021 (HIV-1)
[17] = target: HIV-1 Env of isolate MG RM-D-004 (HIV-1)
[18] = target: HIV-1 NL43 Env (pseudovirus, clade B) (HIV-1)

Chain of 5329_C19 (PGT-136) (antibody) (VH): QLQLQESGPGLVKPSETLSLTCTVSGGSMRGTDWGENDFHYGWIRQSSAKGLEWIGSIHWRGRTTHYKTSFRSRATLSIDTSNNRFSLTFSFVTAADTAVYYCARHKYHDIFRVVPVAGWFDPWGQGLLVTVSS
Chain of 5329_C19 (PGT-136) (antibody) (VL): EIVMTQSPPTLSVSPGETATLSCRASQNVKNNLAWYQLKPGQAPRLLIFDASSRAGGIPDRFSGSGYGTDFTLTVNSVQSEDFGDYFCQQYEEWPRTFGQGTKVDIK

Row | Substance | IC50 [1] [µg/mL] | neutralization IC50 [2] [µg/mL] | IC50 [3] [µg/mL] | IC50 (µg/mL), pseudovirus neutralization [4] [µg/mL] | IC50 (µg/mL), pseudovirus neutralization [5] [µg/mL] | IC50 neutralization [6] [µg/mL] | IC50 (µg/mL), pseudovirus neutralization [7] [µg/mL] | IC50 (µg/mL), pseudovirus neutralization [8] [µg/mL] | IC50 (µg/mL), pseudovirus neutralization [9] [µg/mL] | IC50 (µg/mL), pseudovirus neutralization [10] [µg/mL] | IC50 (µg/mL), pseudovirus neutralization [11] [µg/mL] | neutralization IC50 [12] [µg/mL] | IC50 (µg/mL), pseudovirus neutralization [13] [µg/mL] | IC50 (µg/mL), pseudovirus neutralization [14] [µg/mL] | IC50 (µg/mL), pseudovirus neutralization [15] [µg/mL] | IC50 (µg/mL), pseudovirus neutralization [16] [µg/mL] | IC50 (µg/mL), pseudovirus neutralization [17] [µg/mL] | IC50 neutralization [18] [µg/mL]
1 | 5147_N06 (PGT-130) (antibody) | > 50 | 10.7 | 34.3 | 0.344 | > 50 | 31.9 | > 50 | 0.049 | 0.258 | 0.651 | > 50 | 0.021 | 0.083 | > 50 | > 50 | 0.156 | 1.21 | > 10
2 | 5329_C19 (PGT-136) (antibody) | > 50 | > 50 | > 50 | 11.1 | > 50 | > 50 | 33.7 | > 50 | 0.406 | > 50 | > 50 | 20.2 | > 50 | > 50 | > 50 | > 50 | > 50 | > 10
3 | 5343_B08 (PGT-135) (antibody) | > 50 | > 50 | > 50 | 0.104 | > 50 | > 50 | 1.47 | 0.039 | 0.429 | > 50 | > 50 | > 50 | > 50 | > 50 | > 50 | > 50 | > 50 | 6.79
